Substitutions are numbered along the chain they refer to.
B1: anti-CD300LB antibody CD-05 (antibody, V domains shown)
VH: QVQLVQSGAEVKKPGASVKVSCKASGYTFSRYYINWVRQAPGQGLEWMGWINPNSGGTNYAQKFQGRVTMTRDTSTSTVYMELSSLRSEDTAVYYCTTDQLRFGKTGPYYGMDVWGQGTTVTVSS
VL: DIQMTQSPSSLSASVGDRVTITCRASQNIGTYLNWYQQKPGKAPKLLIYAASSLQSGVPSRFSGSGSGTDFTLTISSLQPEDFATYYCQQSYSDTLTFGGGTKVEIK
B2: anti-CD300LB antibody CD-06 (antibody, V domains shown)
VH: QVQLVQSGAEVKKPGASVKVSCKASGYTFTTYAVHWVRQAPGQGLEWMGIVNPNSGGTNYAQKFQGRVTMTRDTSTSTVYMELSSLRSEDTAVYYCARDIVPMNNFYNYYYGMDVWGQGTTVTVSS
VL: B1 VL with N28S, G30S, T31S, A51T, S53T, S93R, D94I, T95P, L96Y, G100Q
B3: anti-CD300LB antibody CD-09 (antibody, V domains shown)
VH: B2 VH with V51I
VL: B1 VL with N28S, G30S, T31S, A51T, S53T, S93R, D94I, T95P, L96Y, G100Q
B4: anti-CD300LB antibody CD-07 (antibody, V domains shown)
VH: QVQLVQSGAEVKKPGASVKVSCKASGYTFTNYRMHWVRQAPGQGLEWMGWINPNSGGTIYAQKFQGRVTMTRDTSTSTVYMELSSLRSEDTAVYYCARDLDYWGQGTLVTVSS
VL: B1 VL with R24Q, N28D, G30S, T31N, A50G, D94T, T95P, L96W, G100P
B5: anti-CD300LB antibody CD-01 (antibody, V domains shown)
VH: RVQLQQSGAELVRPGASVTLSCKASGFTFTDFEMHWVKKTPVHGLEWIGAIDPESGNTAYNQKFRGKATLTADKSSSTAYMELRYLTSEDSAVYYCTPLISGADYWGQGTTLTVSS
VL: DVVMTQSPLSLPVSLGDQASISCRSSQSLVHSDGNTYLYWYLQKPGQSPKLLIYKVSNRFSGVPDRFSGSGSGTDFTFKISRVGAEDLGVYFCSQSTHVPWTFGGGTKLEII
B6: anti-CD300LB antibody CD-04 (antibody, V domains shown)
VH: QVQLQQSGAELVRPGASVTLSCRASGYTFTDFEMHWVKQTPLHGLEWIGAIAPETGGTAYNQKFKGKAILTADKSSSTAYVELRSLTSEDSAVYFCTRLGGMDYWGQGTSVTVSS
VL: B5 VL with S7T, S28T, S32N, D33N, K55Q, S61F, F78L, G84E, V90L, I112K
B7: anti-CD300LB antibody CD-08 (antibody, V domains shown)
VH: EVQLLESGGGLVQPGGSLRLSCAASGFTFSNAWMSWVRQAPGKGLEWVSVISGSGGRTYYADSVKGRFTISRDNSKNTLYLQMNSLRAEDTAVYYCARDGTTVAPKGMDVWGQGTTVTVSS
VL: DIQMTQSPSSLSASVGDRVTITCQASQDINNYVNWYQQKPGKAPKLLIYAASNLQSGVPSRFSGSGSGTDFTLTISSLQPEDFATYYCQQSYSPPYTFGQGTKLEIK
B8: anti-CD300LB antibody CD-11 (antibody, V domains shown)
VH: QIQLVQSGPEVKKPGETVKISCKASGYTLTDYSMHWVMQTPGTGLKWMAWMNTETGEPTYADDFKGRFAFSLETSAGTAYLQIDNLKNEDTATYFCATYGKSYGMKYWGQGTSVTVSS
VL: DIVLTQSPPSLAVSLGQRATISCRATKSVSPYLHWYQQTPGQPPKLLIYLASNLDSGVPARFSGSGSGTDFTLNIHPVEEEDAATYYCQHNKELPPTFGGGTRLEIK
B9: anti-CD300LB antibody CD-10 (antibody, V domains shown)
VH: QVQLQQSGPELVRPGVSVKISCKGSGYTFTDYAMHWVKQSHVRSREWIGVIGTYNGHTNYNQKFKGKATMTVDKSSSTAYLELARLTSEDSAIYYCARSGSYYYSMDYWGQGTSVTVSS
VL: QIVLTQSPAIMSASPGEKVTMTCSASSSVNYMHWYQQKSGTSPKRWIYDTSKLSSGVPARFSGSGSGTSYSLTISTMEAEDAATYYCQQWSSNPPMTFGGGTKLEIK
B10: anti-CD300LB antibody CD-15 (antibody, V domains shown)
VH: QIQLVQSGPELKKPGETVKISCQVSGYTFTDYSMHWLKQAPGKGLKWMAWINTETGESTYTDEFKGRFVFSLETSVRTAYLKINNLKNEDTATYFCGTYGSSYGMAYWGQGTSVTVSS
VL: DIVLTQSPASLPVSLGQRATISCRASKSVSTSGSSYLHWYQQKPGQPPKLLIYLASKLESGVPARFRGSGSGTDFTLNIHPVEEEDAATYYCQHNREVPPTFGGGTKLEIK
B11: anti-CD300LB antibody CD-16 (antibody, V domains shown)
VH: QIQLVQSGPELKKPGETVKISCKASGYTFTDYSMHWVKQAPGKGLKWMAWINTETGEPTYADDFRGRFAFSLETSGRTAYLEINNLRNEDTATYFCVTYGSSYGMAYWGQGTSVTVSS
VL: B10 VL with P12A, T31R, S34Y, R67S, E84A, V98I

Each binder was assayed against cynomolgus monkey CD300LB transiently expressed on HEK293 cells (cynomolgus monkey) (assay: flow cytometry, transfected HEK293, 10 ug/mL, isotype subtracted).
Sequence of cynomolgus monkey CD300LB transiently expressed on HEK293 cells (cynomolgus monkey) (chain, as listed by the source limits assumed, form in doubt): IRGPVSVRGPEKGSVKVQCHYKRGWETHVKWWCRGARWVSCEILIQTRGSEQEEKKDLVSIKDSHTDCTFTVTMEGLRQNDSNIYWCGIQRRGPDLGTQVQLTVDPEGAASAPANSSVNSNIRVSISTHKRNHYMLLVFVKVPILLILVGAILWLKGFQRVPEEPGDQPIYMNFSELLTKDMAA

How did the gMFI turn out when B1 was run?
Its gMFI is -62.5 gMFI.

For B2, which gMFI is on record?
Its gMFI is -51 gMFI.

Which gMFI does the source give for B3 here?
Its gMFI is -19.5 gMFI.

With B4 as the binder, how does the gMFI read?
Its gMFI is 39 gMFI.

B5 was tested. Which gMFI did it give?
Its gMFI is 190 gMFI.

For B6, which gMFI is on record?
The gMFI was 72.2 gMFI.

How did the gMFI turn out when B7 was run?
Its gMFI is -43.5 gMFI.

Each binder was assayed against CD300A/C/D/E/G (pool of five stable Freestyle HEK cell lines expressing huCD300A, huCD300C, huCD300D, huCD300E and huCD300G) (assay: flow cytometry, pooled stable Freestyle HEK cells).

For B1, which gMFI is on record?
Its gMFI is 2510 gMFI.

For B2, which gMFI is on record?
Its gMFI is 779 gMFI.

How did the gMFI turn out when B3 was run?
Its gMFI is -25.5 gMFI.

B4 was tested. Which gMFI did it give?
The gMFI was 42.5 gMFI.

With B5 as the binder, how does the gMFI read?
The gMFI was -21.5 gMFI.

For B6, which gMFI is on record?
Its gMFI is 52.5 gMFI.

With B7 as the binder, how does the gMFI read?
The gMFI was 166 gMFI.

What follows are binders tested against huCD300F constitutively expressed on 293 Freestyle (Freestyle HEK) cells (human) (UniProt Q8TDQ1) (assay: flow cytometry, stable Freestyle HEK cells).
Sequence of huCD300F constitutively expressed on 293 Freestyle (Freestyle HEK) cells (human) (Q8TDQ1 other isoform, or with tags, fused parts or gaps): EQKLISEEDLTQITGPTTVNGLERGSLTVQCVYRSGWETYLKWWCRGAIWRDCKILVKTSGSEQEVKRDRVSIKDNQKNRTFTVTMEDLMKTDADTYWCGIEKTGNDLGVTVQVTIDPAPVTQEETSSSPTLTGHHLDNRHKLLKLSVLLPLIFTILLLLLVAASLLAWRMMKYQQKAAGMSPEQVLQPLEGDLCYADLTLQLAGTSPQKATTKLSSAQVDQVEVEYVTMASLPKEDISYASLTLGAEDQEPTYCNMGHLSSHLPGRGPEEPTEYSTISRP

How did the gMFI turn out when B6 was run?
The gMFI was 163 gMFI.

The binders below were run against murine CD300LB-Fc (mouse) (assay: SPR (Carterra LSA), antibody immobilised, Fc fusion at 300 or 600 nM).
Sequence of murine CD300LB-Fc (mouse) (chain, as listed by the source limits assumed): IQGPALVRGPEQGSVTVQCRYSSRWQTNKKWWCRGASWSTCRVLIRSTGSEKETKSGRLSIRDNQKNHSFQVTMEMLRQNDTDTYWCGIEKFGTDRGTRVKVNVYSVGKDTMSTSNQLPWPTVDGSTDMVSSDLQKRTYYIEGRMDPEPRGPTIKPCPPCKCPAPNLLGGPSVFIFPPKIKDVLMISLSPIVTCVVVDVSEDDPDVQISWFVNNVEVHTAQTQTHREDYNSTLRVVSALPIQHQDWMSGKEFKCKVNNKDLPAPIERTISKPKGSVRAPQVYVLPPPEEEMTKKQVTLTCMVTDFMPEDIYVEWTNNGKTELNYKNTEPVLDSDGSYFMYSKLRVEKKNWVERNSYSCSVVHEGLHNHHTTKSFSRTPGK

With B1 as the binder, how does the SPR binding (control subtracted) read?
Its SPR binding (control subtracted) is 3.65.

What follows are binders tested against murine CD300C-Fc (mouse) in the same assay as above.
Sequence of murine CD300C-Fc (mouse) (chain, as listed by the source limits assumed): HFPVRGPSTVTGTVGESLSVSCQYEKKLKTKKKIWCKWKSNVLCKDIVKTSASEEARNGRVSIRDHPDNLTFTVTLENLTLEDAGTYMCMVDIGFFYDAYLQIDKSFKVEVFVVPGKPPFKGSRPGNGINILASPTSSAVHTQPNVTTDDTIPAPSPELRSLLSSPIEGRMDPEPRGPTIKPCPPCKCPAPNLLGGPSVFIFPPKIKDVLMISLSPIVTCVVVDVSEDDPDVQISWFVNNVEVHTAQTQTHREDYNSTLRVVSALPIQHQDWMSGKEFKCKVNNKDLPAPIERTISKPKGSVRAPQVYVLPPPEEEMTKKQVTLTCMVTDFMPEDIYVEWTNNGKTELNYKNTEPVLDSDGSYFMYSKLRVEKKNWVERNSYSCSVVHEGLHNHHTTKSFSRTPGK

B8 was tested. Which SPR binding (control subtracted) did it give?
Its SPR binding (control subtracted) is 37.8.

With B9 as the binder, how does the SPR binding (control subtracted) read?
Its SPR binding (control subtracted) is 11.8.

These binders were tested against recombinant human CD300LB overexpressed on Jurkat cells (human) (UniProt A8K4G0) (assay: flow cytometry, stable Jurkat cells, supernatant or 10 ug/mL, isotype subtracted).
Sequence of recombinant human CD300LB overexpressed on Jurkat cells (human) (A8K4G0 18-201 limits assumed): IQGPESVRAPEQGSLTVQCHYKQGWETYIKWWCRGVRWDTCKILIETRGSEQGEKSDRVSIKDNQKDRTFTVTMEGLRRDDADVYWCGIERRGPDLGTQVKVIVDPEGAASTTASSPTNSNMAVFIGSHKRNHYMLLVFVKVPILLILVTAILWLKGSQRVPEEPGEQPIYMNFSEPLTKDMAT

How did the gMFI turn out when B10 was run?
The gMFI was 22 gMFI.

With B11 as the binder, how does the gMFI read?
The gMFI was 31 gMFI.

Reference: patent US20240254227A1
